Target: NRC3 NB-ARC domain (NRC3^NB-ARC, Val-152 to Ser-507) (Nicotiana benthamiana)
Assay: SEC

Recombinant SS15 protein (Ser-25 to Ile-246, lacking signal peptide) (domain or fragment)
stoichiometry N: 1
